Laboratory results: patent publication US20110130348

Assays:
[1] = molecular target: LAP2-HP1 fusion protein (LAP2 at the N-terminus of HP1)
[2] = molecular target: T1, LAP1 (rationally designed Lp1A acceptor peptide)
T1 chain: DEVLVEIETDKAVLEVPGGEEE

[3] = molecular target: HP1 with LAP2 fused to its C-terminus (LAP2-C)
[4] = molecular target: T2, synthetic LAP2 peptide (Lp1A acceptor peptide 2)
T2 chain: GFEIDKVWYDLDA

B1: Escherichia coli lipoic acid ligase (Lp1A) (protein)
chain: MSTLRLLISDSYDPWFNLAVEECIFRQMPATQRVLFLWRNADTVVIGRAQNPWKECNTRRMEEDNVRLARRSSGGGAVFHDLGNTCFTFMAGKPEYDKTISTSIVLNALNALGVSAEASGRNDLVVKTVEGDRKVSGSAYRETKDRGFHHGTLLLNADLSRLANYLNPDKKKLAAKGITSVRSRVTNLTELLPGITHEQVCEAITEAFFAHYGERVEAEIISPNKTPDLPNFAETFARQSSWEWNFGQAPAFSHLLDERFTWGGVELHFDVEKGHITRAQVFTDSLNPAPLEALAGRLQGCLYRADMLQQECEALLVDFPEQEKELRELSAWMAGAVR
percent conversion to lipoylated product (HPLC, 50 nM Lp1A, 1 h) [1]: As in the cellular assays, LAP2 is the best sequence | Km (estimate from HPLC measurements) [2]: the Km for LAP1 is estimated to be >200 µM | percent conversion to lipoylated product (HPLC, 50 nM Lp1A, 1 h) [3]: When fused to the C- rather than N-terminus of HP1, the activity of LAP2 decreased somewhat, but was still higher than all other LAP sequences at the N-terminus | Km of Lp1A-catalyzed lipoylation (HPLC, Michaelis-Menten) [4]: 13.32 ± 1.78 µM | catalytic efficiency (kcat/Km) for lipoic acid ligation [4]: The catalytic efficiency (kcat/Km) 0.99 µM^-1 min^-1) | kcat of Lp1A-catalyzed lipoylation (HPLC, Michaelis-Menten) [4]: 0.22 ± 0.01 s⁻¹
